Data as given in patent publication US11402384B2 (Duke University, priority 2015, dated 2022).

Test: Immobilization on Ni-NTA magnetic beads, drying and accelerated aging of sensor
Assay type: physicochemical
Procedure: The magnetic beads coated with immobilized tsGBP13C_ 244F.Acrylodan were dried by incubation at 50° C. for 20 minutes, using an aqueous ammonium bicarbonate buffer. […] The dried beads were aged in situ inside fully assembled sample-handling cartridges by incubation for up to 7 days at 25° C., 37° C., and 50° C. in the dark. Fluorescence and glucose-responsive properties were tested in cartridges stored for 1, 2 and 7 days. […] The tsGBP2-based FRSs therefore are sufficiently robust to be handled at ambient temperatures in a desiccated state, greatly simplifying manufacturing, distribution, and long-term storage conditions.

B1: W244F A: tsGBP2.13C.W244F (SEQ ID NO: 48) Acrylodan conjugate (conjugate)
chain: MKLEIFSWWAGDCGPALEALIRLYKQKYPGVEVINATVTGGAGVNAKAVLKTRMLGGDPPDTFQVHAGQELIGTWVVADRMEDLTSLFRQEGWLQAFPKGLIDLLSYKGGIWSVPVNIHRSNVMWYIPAKLKEWGVTPPKTWAEFLATAQTLKRKGLEAPLALGENWTQQHLWESVALATLGADGWNNLWSGKLKFTDPKAVAVWETFGKVLDAANKDAAGLSWQQAVDRVVQGKAAFNIMGDFAAGYMSTTLKLKPGTDFAWTPSPGTSGIFMMLSDSFGLPKGAKNRQNAINWLKLVGSKEGQDTFNPLKGSIAARLDSDPAKYNAYGQSAMKDWKSNRIVGSLVHGAVAPESFMSQFGTVMEIFLQSRNPQAAANAAQAIANQVGLGRGGSHHHHHH
modifications: Acrylodan conjugate; tsGBP2.13C.W244F (13C, 244F double substitution mutant with signal peptide replaced with M and a GGSHHHHHH at C-terminus)
stability properties upon rehydration after drying (beads dried at 50° C. for 20 minutes, determined up to 100° C.): recovered upon rehydration
fluorescence ratio in the absence of glucose and glucose affinities after aging (dried beads stored 1, 2 and 7 days at 25° C., 37° C., and 50° C. in the dark): remained approximately unchanged
protein stability on beads compared with solution (immobilized via C-terminal hexa-histidine tag on Ni-NTA magnetic beads, measured up to 100° C.): not perturbed
